From patent US20160347844A1 (Dana-Farber, published 2016) come the findings set out here.

The labels stand for the following.
B1: mPD-L2-hIgG (R&D) (Fc fusion, mouse, UniProt Q9WUL5 20-219, looked up)
chain: LFTVTAPKEVYTVDVGSSVSLECDFDRRECTELEGIRASLQKVENDTSLQSERATLLEEQLPLGKALFHIPSVQVRDSGQYRCLVICGAAWDYKYLTVKVKASYMRIDTRILEVPGTGEVQLTCQARGYPLAEVSWQNVSVPANTSHIRTPEGLYQVTSVLRLKPQPSRNFSCMFWNAHMKELTSAIIDPLSRMEPKVPR
notes: The text of the result says only 'PD-L2-Ig'; also called PD-L2-Ig; mPD-L2-Ig; not shown: human IgG part of the bought fusion protein

Test [1] has as its target T1, recombinant mRGMb-HIS (R&D) (mouse, UniProt Q7TQ33 49-415, limits assumed).
T1 construct: Bought (R&D); also called monomeric mRGMb-HIS; not shown: HIS tag
T1 sequence: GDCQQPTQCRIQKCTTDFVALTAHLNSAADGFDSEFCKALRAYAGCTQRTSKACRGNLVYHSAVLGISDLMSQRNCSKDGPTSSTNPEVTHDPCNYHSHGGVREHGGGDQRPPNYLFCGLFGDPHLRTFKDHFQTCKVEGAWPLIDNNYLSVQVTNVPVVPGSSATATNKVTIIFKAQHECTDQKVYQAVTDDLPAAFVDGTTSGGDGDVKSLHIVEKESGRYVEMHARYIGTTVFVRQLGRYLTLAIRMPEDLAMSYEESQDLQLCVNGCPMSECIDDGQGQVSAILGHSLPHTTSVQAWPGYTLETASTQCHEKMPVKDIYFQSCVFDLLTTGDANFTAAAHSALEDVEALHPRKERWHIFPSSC
Briefly: ELISA, PD-L2-Ig captured through mRGMb-HIS on BMP-2/4-coated plate, anti-hIgG-HRP. On the procedure:
(§1) To determine if RGMb binds PD-L2 and BMP-2/4 simultaneously, 96-well ELISA plates were coated with BMP-2/4 as above. mPD-L2-hIgG1/IgA, mPD-L2-hIgG (R&D), mPD-L1-hIgG (R&D) or control-Ig fusion proteins at 10 µg/ml were preincubated with 10 μg/ml mRGMb-HIS (R&D) or buffer alone for 15 min. at room temperature (RT), then added to the plates and incubated for 1h at 37° C. Alternatively, 10 μg/ml mRGMb-HIS (R&D) or buffer alone was added first to the plates and incubated for 1h at 37° C. After wash, mPD-L2-Ig or control-Ig fusion proteins were added and incubated for 1 h at 37° C. Fab₂ goat anti-hIgG-HRP (Jackson ImmunoResearch Laboratories) at 1:10000 was used for detection.

Test [2] deals with B1. Briefly: ELISA, PD-L2-Ig added to BMP-2-coated plate without RGMb, anti-hIgG-HRP. On the procedure:
as §1

Test [3] concerns the target T1, recombinant mRGMb-HIS (R&D). The test is described as follows: ELISA, BMP-2-coated plate, mRGMb-HIS plus PD-L2-Ig, anti-hIgG-HRP. On the procedure:
as §1

The target of test [4] is T2, mouse RGMb on mRGMb transfected 300 cells (mouse, UniProt Q7TQ33 49-415).
T2 construct: also called 300-mRGMb cells; DRAGON
T2 sequence: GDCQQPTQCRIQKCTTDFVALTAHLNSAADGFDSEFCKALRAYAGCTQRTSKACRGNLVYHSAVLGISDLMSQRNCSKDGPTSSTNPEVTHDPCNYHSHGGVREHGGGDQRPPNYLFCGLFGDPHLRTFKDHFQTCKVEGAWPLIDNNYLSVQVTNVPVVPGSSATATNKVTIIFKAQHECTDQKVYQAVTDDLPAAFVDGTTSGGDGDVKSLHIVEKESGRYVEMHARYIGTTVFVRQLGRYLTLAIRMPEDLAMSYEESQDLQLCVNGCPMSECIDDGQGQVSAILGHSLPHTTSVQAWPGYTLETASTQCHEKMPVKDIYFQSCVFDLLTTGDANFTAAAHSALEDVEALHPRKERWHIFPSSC
Briefly: cell conjugation assay / flow cytometry / ELISA of FIG. 1.

Test [5] has as its target B1. The test is described as follows: ELISA, PD-L2-Ig added to BMP-4-coated plate without RGMb, anti-hIgG-HRP (FIG. 1E).
Source text: (§2) FIG. 1 includes nine panels, identified as panels (A), (B), (C), (D), (E), (F), (G), (H), and (I), which show the blocking capacities of RGMb and PD-L2 mAbs and a model for RGMb, PD-L2, Neogenein, BMP, and BMP-receptor interactions. Panels A-C show the capacities of RGMb mAbs and PD-L2 mAbs to block RGMb binding to PD-L2 or to block PD-1 to PD-L2, as determined by cell conjugation assay. […] Binding of mRGMb-HIS was detected by anti-penta-HIS-HRP. […] Binding of Ig fusion proteins was detected with anti-hIgG-HRP. Similar results were also seen for BMP-2. […] Data shown in Panels 1A-1C and 1F-1H are representative of 2 or more independent experiments.
as §1

Test [6] deals with T1, recombinant mRGMb-HIS (R&D). The test is described as follows: ELISA, BMP-4-coated plate, mRGMb-HIS plus PD-L2-Ig, anti-hIgG-HRP.
Source text: as §2, §1

B1: the binding result in test [1] is “binds”.

B2: recombinant mouse BMP-2 (GIBCO) (ligand)
chain: QAKHKQRKRLKSSCKRHPLYVDFSDVGWNDWIVAPPGYHAFYCHGECPFPLADHLNSTNHAIVQTLVNSVNSKIPKACCVPTELSAISMLYLDENEKVVLKNYQDMVVEGCGCR
notes: Bought; also called mBMP-2
As to B2, the values for the binding result (with mPD-L2-hIgG (R&D) [2]; in test [3]) were “no binding” and “binds”, respectively.

B3: mouse PD-L2 on mPD-L2 transfected 300 cells (ligand, UniProt Q9WUL5 20-247, looked up)
chain: LFTVTAPKEVYTVDVGSSVSLECDFDRRECTELEGIRASLQKVENDTSLQSERATLLEEQLPLGKALFHIPSVQVRDSGQYRCLVICGAAWDYKYLTVKVKASYMRIDTRILEVPGTGEVQLTCQARGYPLAEVSWQNVSVPANTSHIRTPEGLYQVTSVLRLKPQPSRNFSCMFWNAHMKELTSAIIDPLSRMEPKVPRTWPLHVFIPACTIALIFLAIVIIQRKRI
notes: whole, on cells; also called 300-mPD-L2
For B3, the binding result in test [4] was “binds”.

B4: recombinant mouse BMP-4 (R&D) (ligand)
chain: SPKHHPQRSRKKNKNCRRHSLYVDFSDVGWNDWIVAPPGYQAFYCHGDCPFPLADHLNSTNHAIVQTLVNSVNSSIPKACCVPTELSAISMLYLDEYDKVVLKNYQEMVVEGCGCR
notes: Bought; also called mBMP-4
For B4, the binding result was “no binding” with mPD-L2-hIgG (R&D) [5] and “binds” in test [6].
